Assay results as given in article PMC11480844.

B1: H2-Kb / B16 (parent)
chain 1: QQQVRQSPQSLTVWEGGTTVLTCSYEDSTFNYFPWYQQFPGEGPALLISILSVSDKKEDGRFTTFFNKREKKLSLHIIDSQPGDSATYFCAARGSALGRLHFGAGTQLIVIP
chain 2: EAAVTQSPRSKVAVTGGKVTLSCHQTNNHDYMYWYRQDTGHGLRLIHYSYVADSTEKGDIPDGYKASRPSQENFSLILELASLSQTAVYFCASSDGTNQAPLFGEGTRLSVL
chain 3: not shown
chain 4: IQKTPQIQVYSRHPPENGKPNILNCYVTQFHPPHIEIQMLKNGKKIPKVEMSDMSFSKDWSFYILAHTEFTPTETDTYACRVKHDSMAEPKTVYWDRDM
chain 5: SIINFEKL
B2: H2-Kb / E4 (parent)
chain 1: AQSVTQPDARVTVSEGASLQLRCKYSYSGTPYLFWYVQYPRQGLQLLLKYYSGDPVVQGVNGFEAEFIKSNSSFHLRKASVHWSDSAVYFCAVSAGQGGSAKLIFGEGTKLTVSS
chain 2: GGIITQTPKFLIGQEGQKLTLKCQQNFNHDTMYWYRQDSGKGLRLIYYSITENDLQKGDLSEGYDASREKKSSFSLTVTSAQKNEMAVFLCASSIWGDSYEQYFGPGTRLTVL
chain 3: not shown
chain 4: B1 chain 4
chain 5: SIINFEKL
B3: H2-Kb / H6 (parent)
chain 1: AQKVTQTQTSISVMEKTTVTMDCVYETQDSSYFLFWYKQTASGEIVFLIRQDSYKKENATVGHYSLNFQKPKSSIGLIITATQIEDSAVYFCAMRDYNQGKLIFGQGTKLSIKP
chain 2: EAAVTQSPRSKVAVTGGKVTLSCHQTNNHDYMYWYRQDTGHGLRLIHYSYVADSTEKGDIPDGYKASRPSQENFSLILELASLSQTAVYFCASSGTAANSDYTFGSGTRLLVI
chain 3: not shown
chain 4: B1 chain 4
chain 5: SIINFEKL

Variants of: B1
Assay: % of reporter cells activated (NFAT-GFP), raw
Conditions: with B16; scale: % of reporter cells activated
Note: test concentration or dose not given here.

Ratio to parent, by site and new letter:
chain 5 I2: K 1.52, A 1.49, W 1.35, N 1.26, C 1.48, E 1.47, H 1.62, T 1.34, D 1.19, Q 1.21, F 1.2, P 1.48, Y 1.3, R 0.921, L 1.51, S 1.34, V 1.33, G 1.56, M 1.11
chain 5 I3: H 1.38, A 1.55, M 1.4, S 1.5, F 1.11, Q 1.5, G 1.22, P 2.05, K 1.44, C 1.52, N 1.37, V 1.07, R 0.807, W 1.08, L 1.28, Y 1.33, E 1.3, T 1.24, D 1.13
chain 5 N4: W 1.13, L 1.48, Y 0.87, G 1.35, C 1.2, E 1.25, M 1.21, P 1.25, V 1.14, R 0.969, F 0.909, A 1.39, T 1.04, K 1.37, Q 0.992, I 1.25, S 1.09, H 1.26, D 1.19
chain 5 F5: V 0.945, S 1.27, I 1.07, H 1.61, N 1.21, D 1.4, G 1.52, P 1.74, L 1.44, Y 1.31, A 1.48, C 1.46, M 1.52, W 1.26, T 1.4, Q 1.39, K 1.52, E 1.52, R 1.2
chain 5 L8: C 0.996, G 1.26, W 0.689, H 1.1, S 0.65, E 0.547, V 0.697, P 1.36, N 0.744, T 0.787, F 0.579, R 1.28, I 0.602, K 0.827, A 0.921, M 0.799, Q 1.04, Y 1.24, D 0.823
chain 5 E6: N 1.36, A 1.57, Q 1.5, K 1.12, I 0.917, Y 1.02, P 1.09, G 1.23, T 1.4, F 1.48, S 1.25, W 1.05, C 2.48, D 1.36, M 1.43, H 1.39, R 1.29, V 1.2, L 1.21
chain 5 S1: L 1.11, R 0.846, Q 1.28, M 1.08, F 1.35, C 1.57, P 1.3, N 1.09, D 1.29, K 1.38, G 1.43, W 0.941, Y 1.56, E 1.26, T 1.36, H 1.37, A 1.54, I 1.35, V 1.16
chain 5 K7: E 1.16, R 0.488, S 0.657, Y 0.996, I 1.41, T 0.665, P 1.02, W 0.496, F 1.01, Q 1.39, V 0.823, M 0.921, A 1.29, C 1.33, H 1.21, G 1.06, N 0.823, D 0.886, L 1.03

Variants of: B2
Assay: % of reporter cells activated (NFAT-GFP), raw
Conditions: with E4

Ratio to parent: each site, then its substitutions
chain 5 N4: M 0.968, I 0.873, Y 0.762, S 0.714, G 0.698, V 0.825, H 1.05, R 0.905, P 0.651, A 0.889, Q 0.714, F 0.635, K 1.1, T 0.635, L 1.02, C 0.921
chain 5 I2: P 0.937, Y 0.825, E 0.873, G 0.873, R 0.556, M 1.14, C 1.19, K 0.746, H 1.06, Q 0.937, W 1.11, S 0.651, V 0.921, N 1.27, A 1.43
chain 5 K7: V 0.841, T 0.378, E 0.873, W 0.413, Q 0.521, D 0.444, R 0.633, I 1.29, G 0.841, C 1.32, Y 0.425, N 0.437, M 0.492, F 0.49, H 0.905, S 0.46, L 0.508
chain 5 S1: N 0.825, C 0.952, K 1.24, I 0.825, D 0.984, A 0.857, Y 0.873, Q 0.889, W 0.841, G 0.937, F 0.857, P 0.857, T 0.905, H 0.841, L 0.937, R 0.565
chain 5 E6: A 0.635, L 0.381, T 0.841, G 0.746, S 0.952, M 0.54, I 0.873, Q 0.778, C 0.651, K 0.873, R 0.81, Y 1.08, N 0.619, F 0.698
chain 5 I3: K 0.937, C 0.762, N 0.667, A 0.921, L 1.22, G 0.825, F 0.762, V 0.698, Y 0.508, R 0.603, Q 0.81, D 0.73, M 1, E 1.37, H 0.921
chain 5 L8: S 0.51, W 0.762, T 0.73, M 0.381, Y 0.6, P 0.762, G 0.746, V 0.603, C 0.46, D 0.444, E 0.619, Q 0.524, N 0.778, R 1.29, F 0.427
chain 5 F5: M 0.629, V 0.206, L 0.698, Q 0.778, H 0.825, C 1.63, W 0.54, I 0.746, K 0.825, P 0.762, S 0.556, D 1.32, Y 0.492, N 0.635

Variants of: B3
Assay: % of reporter cells activated (NFAT-GFP), raw
Conditions: with H6; scale: % of reporter cells activated

Ratio to parent: each site, then its substitutions
chain 5 N4: T 0.143, W 0.672, G 0.445, R 0.102, I 0.116, F 0.335
chain 5 I2: E 1.09, Q 0.385, G 0.956, C 1.27, M 0.624, S 1.56, N 0.541, R 0.281
chain 5 K7: W 0.129, S 0.0877, Q 0.102, D 0.0822, G 0.072, T 0.111, A 0.097
chain 5 L8: Q 0.131, T 0.521, E 0.214, A 0.199, P 0.26, G 0.36, I 0.888
chain 5 E6: F 0.11, V 0.0536, S 0.107, D 0.365, R 0.097, T 0.0942, P 0.0822, M 0.0896
chain 5 F5: H 0.777, N 0.446, T 0.694, R 0.248, M 1.14
chain 5 S1: P 0.141, Y 0.424, W 0.292, R 0.333, T 0.524, I 0.338, D 1.53, L 0.355, M 0.536, E 0.709, H 0.446, F 0.276
chain 5 I3: A 1.33, E 1.19, L 1.02, K 0.236, W 0.281, V 1.57, Y 0.236
